The values below come from patent US20240376151A1, “STAPLED PEPTIDES AND METHODS THEREOF” (FOG PHARMACEUTICALS, INC., priority 2022, published 2024).

Numbered stars: 1 amine (or outer) side, 2 acyl side, 3 side chain; on linkers, the order of the positions; unused ones are H or OH. Bridge positions count the residues as written; N and C are the ends. Ends that are not written are not given here. Phenylene(1,4-NHCOCH2)2 = O=C(C[*:1])Nc1ccc(NC(=O)C[*:2])cc1

The target in one experiment is T1, FBXW7-SKP1 (Homo sapiens, UniProt Q969H0).
T1 construct: FBXW7 (Uniprot ID: Q969H0, residues 263-706) with an N-terminal GST-TEV tag and C-terminal AVI tag; GST-TEV (N); made in house; host or cells: E. coli BL21 (DE3)
T1 sequence (Q969H0 263-706): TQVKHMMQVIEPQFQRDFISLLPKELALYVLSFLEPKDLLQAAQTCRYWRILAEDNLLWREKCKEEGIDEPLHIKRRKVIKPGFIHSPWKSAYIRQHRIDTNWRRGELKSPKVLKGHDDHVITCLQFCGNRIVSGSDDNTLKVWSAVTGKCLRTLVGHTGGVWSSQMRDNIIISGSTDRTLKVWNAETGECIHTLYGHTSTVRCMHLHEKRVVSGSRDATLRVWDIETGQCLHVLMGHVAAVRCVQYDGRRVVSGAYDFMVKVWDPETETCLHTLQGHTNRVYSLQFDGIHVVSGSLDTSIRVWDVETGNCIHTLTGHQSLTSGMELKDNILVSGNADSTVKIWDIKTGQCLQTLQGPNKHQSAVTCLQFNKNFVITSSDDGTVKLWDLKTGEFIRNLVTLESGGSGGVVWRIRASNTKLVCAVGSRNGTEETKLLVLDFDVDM
T1 sequence (P63208 whole entry partner, the tested form may be a part): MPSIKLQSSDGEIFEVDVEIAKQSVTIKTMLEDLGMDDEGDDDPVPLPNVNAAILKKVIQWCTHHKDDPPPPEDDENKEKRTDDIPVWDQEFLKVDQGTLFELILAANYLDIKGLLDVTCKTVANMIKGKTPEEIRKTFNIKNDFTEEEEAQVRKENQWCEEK
In words: Naive Library Presenter Screening (phage, NGS), FBXW7-SKP1. To be noted: for interaction data at Target Concentration 10: FBXW7 target concentration 10 nM; for interaction data at Target Concentration 30: FBXW7 target concentration 30 nM; for interaction data at Target Concentration 100: FBXW7 target concentration 100 nM; for interaction data at Target Concentration 300: FBXW7 target concentration 300 nM; for interaction data at Target Concentration 1000: FBXW7 target concentration 1000 nM. The experiment is classed as binding. As to the method:
To conduct phage library screening, previously described procedures were utilized in accordance with the present disclosure.
Next-generation sequencing was performed as described in accordance with the present disclosure.
Hit ID and Clustering is performed according to a described procedure in accordance with the present disclosure.

The target of another experiment is T2, WWP1 (Homo sapiens, UniProt Q9H0M0).
T2 construct: GST-TEV (N, cleaved yes); made in house; host or cells: Escherichia coli BL21 (DE3)
The experiment can be described thus: Naive Library Presenter Screening (phage, NGS), WWP1 (construct not given). The experiment is classed as binding. To be noted: for interaction data at Target Concentration 10: WWP1 target concentration 10 nM; for interaction data at Target Concentration 30: WWP1 target concentration 30 nM; for interaction data at Target Concentration 100: WWP1 target concentration 100 nM; for interaction data at Target Concentration 300: WWP1 target concentration 300 nM; for interaction data at Target Concentration 1000: WWP1 target concentration 1000 nM.

DPANIACDDAALLCELW: in the experiment with FBXW7-SKP1, the “interaction data at Target Concentration 10” value was 0, the “interaction data at Target Concentration 30” value was found to be 1, the “interaction data at Target Concentration 100” value is on record as 1 and the “interaction data at Target Concentration 300” value came to 7. In addition, the “interaction data at Target Concentration 1000” value in the experiment with FBXW7-SKP1 (first column) is 8. In addition, the “interaction data at Target Concentration 1000” value in the experiment with FBXW7-SKP1 (second column) is reported as 6.
With DPAYFSCEDAAELCEWY, in the experiment with FBXW7-SKP1, the “interaction data at Target Concentration 10” value amounted to 0, the “interaction data at Target Concentration 30” value is 0, the “interaction data at Target Concentration 100” value is recorded as 1 and the “interaction data at Target Concentration 300” value worked out at 3. The “interaction data at Target Concentration 1000” value in the experiment with FBXW7-SKP1 (first column) was determined as 13. Further, in the experiment with FBXW7-SKP1 (second column), the “interaction data at Target Concentration 1000” value came to 38.
As to DPATYFCYDAAELCDWW, in the experiment with FBXW7-SKP1, the “interaction data at Target Concentration 10” value stood at 0, the “interaction data at Target Concentration 30” value is 0, the “interaction data at Target Concentration 100” value stood at 1 and the “interaction data at Target Concentration 300” value was determined as 5. In addition, the “interaction data at Target Concentration 1000” value with FBXW7-SKP1 (first column) came out at 5. The “interaction data at Target Concentration 1000” value with FBXW7-SKP1 (second column) is reported as 82.
Consider DPANIACDDAALLCEFW, for which, in the experiment with FBXW7-SKP1, the “interaction data at Target Concentration 10” value was found to be 4, the “interaction data at Target Concentration 30” value is given as 131, the “interaction data at Target Concentration 100” value is 203 and the “interaction data at Target Concentration 300” value was found to be 946. In addition, in the experiment with FBXW7-SKP1 (first column), the “interaction data at Target Concentration 1000” value is given as 1140. The “interaction data at Target Concentration 1000” value with FBXW7-SKP1 (second column) is given as 1464.
As for “DPANWVCMDAAELCDFY (DPANWVCMDAAELCDFY-NH2; linker 7-14 via Phenylene(1,4-NHCOCH2)2 (inferred))”, in the experiment with FBXW7-SKP1, the “interaction data at Target Concentration 10” value stood at 0, the “interaction data at Target Concentration 30” value was 0, the “interaction data at Target Concentration 100” value is listed as 5 and the “interaction data at Target Concentration 300” value is on record as 2. The “interaction data at Target Concentration 1000” value in the experiment with FBXW7-SKP1 (first column) came out at 99. Also, the “interaction data at Target Concentration 1000” value with FBXW7-SKP1 (second column) was 15.
Regarding DPADMMCENAALLCEFW, in the experiment with FBXW7-SKP1, the “interaction data at Target Concentration 10” value is recorded as 1, the “interaction data at Target Concentration 30” value is listed as 3, the “interaction data at Target Concentration 100” value worked out at 68 and the “interaction data at Target Concentration 300” value is 20. In addition, in the experiment with FBXW7-SKP1 (first column), the “interaction data at Target Concentration 1000” value was 282. In addition, in the experiment with FBXW7-SKP1 (second column), the “interaction data at Target Concentration 1000” value is on record as 228.
DPANIACDDAALLCAFW: in the experiment with FBXW7-SKP1, the “interaction data at Target Concentration 10” value is recorded as 0, the “interaction data at Target Concentration 30” value was 0, the “interaction data at Target Concentration 100” value turned out to be 2 and the “interaction data at Target Concentration 300” value was determined as 7. The “interaction data at Target Concentration 1000” value in the experiment with FBXW7-SKP1 (first column) is given as 5. Also, in the experiment with FBXW7-SKP1 (second column), the “interaction data at Target Concentration 1000” value is listed as 8.
Consider DPAITTCLDAAELCDFW, for which, in the experiment with FBXW7-SKP1, the “interaction data at Target Concentration 10” value was found to be 1, the “interaction data at Target Concentration 30” value was 26, the “interaction data at Target Concentration 100” value is 61 and the “interaction data at Target Concentration 300” value is 34. Besides, in the experiment with FBXW7-SKP1 (first column), the “interaction data at Target Concentration 1000” value is listed as 215. Also, the “interaction data at Target Concentration 1000” value with FBXW7-SKP1 (second column) is 132.
Consider DPAAWICEEAAEICEFW, for which, in the experiment with FBXW7-SKP1, the “interaction data at Target Concentration 10” value came out at 0, the “interaction data at Target Concentration 30” value is given as 0, the “interaction data at Target Concentration 100” value was determined as 5 and the “interaction data at Target Concentration 300” value amounted to 4. For the same sequence, in the experiment with FBXW7-SKP1 (first column), the “interaction data at Target Concentration 1000” value came to 15. The “interaction data at Target Concentration 1000” value with FBXW7-SKP1 (second column) amounted to 36.
Regarding DPAFWYCDEAAEMCEFW, in the experiment with FBXW7-SKP1, the “interaction data at Target Concentration 10” value stood at 0, the “interaction data at Target Concentration 30” value is 0, the “interaction data at Target Concentration 100” value was 20 and the “interaction data at Target Concentration 300” value was 28. Moreover, the “interaction data at Target Concentration 1000” value in the experiment with FBXW7-SKP1 (first column) amounted to 91. The “interaction data at Target Concentration 1000” value with FBXW7-SKP1 (second column) worked out at 17.
As to DPAAFFCDDAAERCEFW, in the experiment with FBXW7-SKP1, the “interaction data at Target Concentration 10” value was found to be 4, the “interaction data at Target Concentration 30” value is given as 39, the “interaction data at Target Concentration 100” value is given as 35 and the “interaction data at Target Concentration 300” value is on record as 163. In the experiment with FBXW7-SKP1 (first column), the “interaction data at Target Concentration 1000” value was determined as 245. The “interaction data at Target Concentration 1000” value in the experiment with FBXW7-SKP1 (second column) is reported as 449.
As to DPAMTWCLNAAELCEFW, in the experiment with FBXW7-SKP1, the “interaction data at Target Concentration 10” value is 0, the “interaction data at Target Concentration 30” value was found to be 0, the “interaction data at Target Concentration 100” value is reported as 0 and the “interaction data at Target Concentration 300” value was determined as 3. Moreover, in the experiment with FBXW7-SKP1 (first column), the “interaction data at Target Concentration 1000” value is given as 17. Besides, the “interaction data at Target Concentration 1000” value in the experiment with FBXW7-SKP1 (second column) was found to be 83.
“DPAWVSCVRAANLCHVS (linker 7-14 via Phenylene(1,4-NHCOCH2)2 (inferred); not fully specified (C-terminus))”: in the experiment with WWP1, the “interaction data at Target Concentration 10” value was determined as 33, the “interaction data at Target Concentration 30” value came out at 1, the “interaction data at Target Concentration 100” value is 0 and the “interaction data at Target Concentration 300” value came to 0. Moreover, the “interaction data at Target Concentration 1000” value with WWP1 (first column) was determined as 183. The “interaction data at Target Concentration 1000” value with WWP1 (second column) came out at 140.
As for “DPAVRDCSDAAIVCELV (linker 7-14 via Phenylene(1,4-NHCOCH2)2)”, in the experiment with WWP1, the “interaction data at Target Concentration 10” value was 5, the “interaction data at Target Concentration 30” value is 5, the “interaction data at Target Concentration 100” value is listed as 147 and the “interaction data at Target Concentration 300” value amounted to 91. Moreover, in the experiment with WWP1 (second column), the “interaction data at Target Concentration 1000” value came out at 197.
Turning to “DPAATLCNQAANVCALL (linker 7-14 via Phenylene(1,4-NHCOCH2)2)”, in the experiment with WWP1, the “interaction data at Target Concentration 10” value came to 0, the “interaction data at Target Concentration 30” value came to 0, the “interaction data at Target Concentration 100” value is on record as 132 and the “interaction data at Target Concentration 300” value worked out at 145. In addition, the “interaction data at Target Concentration 1000” value with WWP1 (second column) was 197.
Take “DPAMIACSHAAQMCHWS (linker 7-14 via Phenylene(1,4-NHCOCH2)2)”: in the experiment with WWP1, the “interaction data at Target Concentration 10” value is 0, the “interaction data at Target Concentration 30” value turned out to be 8, the “interaction data at Target Concentration 100” value is given as 3 and the “interaction data at Target Concentration 300” value was 454. In the experiment with WWP1 (first column), the “interaction data at Target Concentration 1000” value is reported as 275. Besides, the “interaction data at Target Concentration 1000” value with WWP1 (second column) is reported as 281.
For the sequence “DPARWACTEAAHVCDTL (linker 7-14 via Phenylene(1,4-NHCOCH2)2)”, in the experiment with WWP1, the “interaction data at Target Concentration 10” value was found to be 0, the “interaction data at Target Concentration 30” value is recorded as 2 and the “interaction data at Target Concentration 300” value amounted to 182. In the experiment with WWP1 (first column), the “interaction data at Target Concentration 1000” value is on record as 183. The “interaction data at Target Concentration 1000” value with WWP1 (second column) came to 281.
Regarding DPADMYCRDAAELCEFW, in the experiment with FBXW7-SKP1, the “interaction data at Target Concentration 10” value came out at 1, the “interaction data at Target Concentration 30” value amounted to 23, the “interaction data at Target Concentration 100” value is recorded as 187 and the “interaction data at Target Concentration 300” value was 302. For the same sequence, the “interaction data at Target Concentration 1000” value with FBXW7-SKP1 (first column) was determined as 505. The “interaction data at Target Concentration 1000” value with FBXW7-SKP1 (second column) stood at 554.
For “DPAMRRCHQAAWVCEVL (linker 7-14 via Phenylene(1,4-NHCOCH2)2)”, in the experiment with WWP1, the “interaction data at Target Concentration 10” value is listed as 0, the “interaction data at Target Concentration 30” value is listed as 1, the “interaction data at Target Concentration 100” value is given as 98 and the “interaction data at Target Concentration 300” value is 182. Also, the “interaction data at Target Concentration 1000” value with WWP1 (first column) was 183. Also, the “interaction data at Target Concentration 1000” value in the experiment with WWP1 (second column) stood at 140.
“DPAHQTCAFAAVLCHQN (linker 7-14 via Phenylene(1,4-NHCOCH2)2)”: in the experiment with WWP1, the “interaction data at Target Concentration 10” value was 0, the “interaction data at Target Concentration 30” value came to 0, the “interaction data at Target Concentration 100” value came out at 32 and the “interaction data at Target Concentration 300” value amounted to 18. Moreover, in the experiment with WWP1 (second column), the “interaction data at Target Concentration 1000” value worked out at 309.
Consider DPAIRMCRDAAELCEFW, for which, in the experiment with FBXW7-SKP1, the “interaction data at Target Concentration 10” value is 0, the “interaction data at Target Concentration 30” value is 0, the “interaction data at Target Concentration 100” value worked out at 1 and the “interaction data at Target Concentration 300” value is reported as 4. In the experiment with FBXW7-SKP1 (first column), the “interaction data at Target Concentration 1000” value turned out to be 66. For the same sequence, the “interaction data at Target Concentration 1000” value with FBXW7-SKP1 (second column) was 94.
For the sequence DPADLTCEDAAELCEFW, in the experiment with FBXW7-SKP1, the “interaction data at Target Concentration 10” value was determined as 2, the “interaction data at Target Concentration 30” value is listed as 80, the “interaction data at Target Concentration 100” value came out at 352 and the “interaction data at Target Concentration 300” value is 535. In the experiment with FBXW7-SKP1 (first column), the “interaction data at Target Concentration 1000” value was 1005. Also, in the experiment with FBXW7-SKP1 (second column), the “interaction data at Target Concentration 1000” value came out at 510.
